The nature of this series: yeast display, Sf9 membrane polyspecificity reagent, FACS + sequencing; frameworks hold sequencing errors. A digest of the protocol: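 After 36–48 hours of galactose induction, yeast (Saccharomyces cerevisiae BJ5465) displaying a synthetic nanobody library were stained at 4 °C for 1 hour with 10% biotinylated, detergent-solubilized Sf9 membrane reagent. Streptavidin microbeads enriched the stained cells before FACS sorting into low and high (top ~1%) gates on anti-HA and streptavidin fluorescence. Each clone's polyreactivity label reflects its gate of origin.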
In the case of “QVQLVESGGGLVQAGGSLRLSCAASGSTFLVYAMGWYRPAPGKERELVAAITQIDGSTYNADSVKGRFTISRDNSKNTVYLQRHSLKPEDTAVYYCAARYFWTYEYDYWGQGTQVTVSS”, the “polyreactivity (PSR sort gate)” value is “low polyreactivity”.
Turning to “QVQLVESGGGLVQAGGSLRLSCAASGSTFLVYAMGWYRQAPGKERELVAAINFSGSSTYYADSVKGRFTISRDNAENTVYLQMNSLKPEDTAVYYCAADSLELWYGYFWVKVPYDYWGQGTQVTVSS”, the “polyreactivity (PSR sort gate)” value is “low polyreactivity”.
As for “QVQLVESGGGLVQAGGSLRLSCAASGSTFLWYAMGWYRQAPGKERELVAVIDWSGGSTSYADSVKGRFTISRDNAKNTVYLQMNSLKPEDTAVYYCAADYGHYYGLYYWGQGTQVTVSS”, the entry is “low polyreactivity”.
As to “QVQLVESGGGLVQAGGSLRLSCAASGSTFLYNAIGWYRQAPGKERELVAAISSGGRTKYADSVKGRFTISRDTAKNTVYLQMNSLKPEDTAVYYCAAESYTGKYCWVWKWYDYWGQGTQVTVSS”, the “polyreactivity (PSR sort gate)” value is “low polyreactivity”.
For “QVQLVESGGGLVQAGGSLRLSCAASGSTFLYYAMGWSRQAPGKERELVAVISWSGVSTYYADSVKGRFTISRDNAKNSVYLQMNSLKPEDTAVYYCYTGYHYIRSYGYWGQGTQVTVSS”, the “polyreactivity (PSR sort gate)” value is reported as “low polyreactivity”.
Regarding “QVQLVESGGGLVQAGGSLRLSCAASGSTFLYYAMGWYRQAPGKERELVAVIRLDAGRTYYADSVKGRFTISRDNAKNTVYFQMNSLKPEDTAVYYCAAKGSFRTYGGGNYWGQGTQVTVSS”, the “polyreactivity (PSR sort gate)” value is on record as “high polyreactivity”.
With “QVQLVESGGGLVQAGGSLRLSCAASGSTFLYYAMGWYRQAPGKESELVAAIDSGGSTYYADSVKGRFTISRDNAKNTVYLQMNSLKPEDTAVYYCNADPPPEYYPDKDNYWGQGTQVTVSS”, the “polyreactivity (PSR sort gate)” value is on record as “low polyreactivity”.
Take “QVQLVESGGGLVQAGGSLRLSCAASGSTFLYYAMGWYRQAPGKESELVARITTRVGRTYYADSVKGRFTISRDNAKNTVYLQMNSLKPEDTAVYYCNAPYLKSRFRAYYHWGQGTQVTVAS”: the “polyreactivity (PSR sort gate)” value is “high polyreactivity”.
In the case of “QVQLVESGGGLVQAGGSLRLSCAASGSTFLYYAMGWYRQATGKERELVAAIDSGGSTYYADSVKGRFTISRDNAKNTVYLQMNSLKPEDTAVYYCNADFADHWPPNGPGAHDYWGQGTQVTVSS”, the “polyreactivity (PSR sort gate)” value is listed as “low polyreactivity”.
For the sequence “QVQLVESGGGLVQAGGSLRLSCAASGSTFNAYAMGWYRQAPGKERELVAAITDGDSTNYADSVKGRSTISRDNAKNTVYLQMNSLKPEDTAVYYCAKDSSVGDGDDGWVWFDLYYWGQGTQVTVSS”, the “polyreactivity (PSR sort gate)” value is “low polyreactivity”.
With “QVQLVESGGGLVQAGGSLRLSCAASGSTFNAYDMGWYRQAPGKERELVAAISTSGDSTYFADSVKGRFTISRDNAKNTVYLQMNSLKPEDTAVYYCARDIYHYGYDYWGQGTQVTVSS”, the “polyreactivity (PSR sort gate)” value is listed as “low polyreactivity”.
For the sequence “QVQLVESGGGLVQAGGSLRLSCAASGSTFNCYHMGWYRQAPGKEMELVAAITGSGGYTYYADSVKGRFTISRDNAKNTVYLQMKSLNPEETAVYYCAAKKVAGRRFYYWGQGTQVTVSS”, the “polyreactivity (PSR sort gate)” value was “low polyreactivity”.
Regarding “QVQLVESGGGLVQAGGSLRLSCAASGSTFNDNAMGWYRQAPGKERELVAGISYSGGSTYYADSVKGRFTISRDHAKNTVYLQMNSLKPEDTAVYYCNADVTGLSQFGYWGQGTQVTVSS”, the “polyreactivity (PSR sort gate)” value is “low polyreactivity”.
Turning to “QVQLVESGGGLVQAGGSLRLSCAASGSTFNDYDMGWYRQAPGNERELVAAISSGGSTYYADSVKGRFTISRDNAKNTVYLQMNSLKPEDTAVYYCAAVLGVWGGVGSEGDFWGQGTQVTVSS”, the “polyreactivity (PSR sort gate)” value is “low polyreactivity”.
Take “QVQLVESGGGLVQAGGSLRLSCAASGSTFNDYTMGWYRQAPGKERELVAAITDSGGSTYYADSVKGRFTISRDNAKNTVYLQMNSLKPEDTAVYYCAAAVPELYEVRYHDDYWGQGTQVTVSS”: the “polyreactivity (PSR sort gate)” value is reported as “low polyreactivity”.
Regarding “QVQLVESGGGLVQAGGSLRLSCAASGSTFNFYAMGWYRQAPGKDREFVAAITSSGDSTYYADSVKGRFTISRDNAKNTAYLQMNSLKPEDTAVYYCAARLRWRYSYDYWGQGTQVTVSS”, the “polyreactivity (PSR sort gate)” value is on record as “high polyreactivity”.
For the sequence “QVQLVESGGGLVQAGGSLRLSCAASGSTFNGYAMGWYRQAPGKERELVAAISKRGGGTYYADSVKGRFTISRDNAKNTVYLQMNSLKPEDTAVYYCAAVSGPFVQTSGNGEYDYWGQGTQVTVSS”, the “polyreactivity (PSR sort gate)” value is “low polyreactivity”.
Take “QVQLVESGGGLVQAGGSLRLSCAASGSTFNGYAMGWYRQAPGKERELVAAISSRSGRTYYADSVKGRFTISRDNAKNTVYLQMNSLKPEDTAVYYCAAYNGSRRQEFDYWGQGTQVTVSS”: the “polyreactivity (PSR sort gate)” value was “high polyreactivity”.
Take “QVQLVESGGGLVQAGGSLRLSCAASGSTFNINAMGWYRPAPRKERELVARIRASGASTYYADSVKGRFTISRDNAKITVYLQMNSLKPDDTAVYYCAAYTYSFRANHDYWGQGTQVTVSS”: the “polyreactivity (PSR sort gate)” value is “high polyreactivity”.
In the case of “QVQLVESGGGLVQAGGSLRLSCAASGSTFNIYAMGWYRQAPGKEREFVASIRWSGGSTYYADSVKGRFTISRDNAKNTVYLQMNSLKPEDTAVYYCAGRTFWGAYDYWGQGTQVTVSS” it was “high polyreactivity”; in that of “QVQLVESGGGLVQAGGSLRLSCAASGSTFNNAMGWYRQPPGKERELVAAITRSGVRTYYADSVKGRFTISRDNAKNTVYLQMNSLKPEDTAVYYCAAGFQSRRYYAGYEYWGQGTQVTVSS”, “high polyreactivity”.
Regarding “QVQLVESGGGLVQAGGSLRLSCAASGSTFNQNAMGWYRQAPGKERELVAAITVDGSSTYYADSVKGRFTISRDNAKNTVYLQMNSLKPEDTAVYYCAAGYSARSSGYTGGYDYWGQGTQVTVSS”, the “polyreactivity (PSR sort gate)” value was “high polyreactivity”.
As for “QVQLVESGGGLVQAGGSLRLSCAASGSTFNRNTMGWYRQAPGKERELVASINRGGSTYYADSVKGRFTISRDNAKNTVYLQMNSLKPEDTAVYYCAKRVRKSYTGTQAPKKFGYWGQGSQVTVSS”, the entry is “low polyreactivity”; as for “QVQLVESGGGLVQAGGSLRLSCAASGSTFNRYAMGWYRQAPGKERELVAAISSGGTTYYADSVKGRFTSSRDNAKNTVYLQMNSLKPEDTAVYYCNARKYGWVQRIIIYDYWGQGTQVTVSS”, “high polyreactivity”.
Regarding “QVQLVESGGGLVQAGGSLRLSCAASGSTFNRYAMGWYRQAPGKERELVAAITSTGGTNYADSVKGRFTISLDNAKNTVYLQMNSLKPEDTAVYYCAKRWLRWRSNYWGQGTQVTVSS”, the “polyreactivity (PSR sort gate)” value is “high polyreactivity”.
As for “QVQLVESGGGLVQAGGSLRLSCAASGSTFNRYAMGWYRQAPGKERELVASISCSGGASTYYADSVKGRFTISRDNAKNTVYLQMNSLKPEDTAVYYCAVSRDSYGGKGSVLYDYWGQGTQVTVSS”, the entry is “low polyreactivity”.
For the sequence “QVQLVESGGGLVQAGGSLRLSCAASGSTFNRYGMGWYIQAPGKERELVAAISGSNGGTYYADSVKGRFTISRDNAKNTVYLQMNSLKPEDTAVYFCAKVRAYTRLGLTVSMDYWGQGTKVTVSS”, the “polyreactivity (PSR sort gate)” value is recorded as “high polyreactivity”.
Take “QVQLVESGGGLVQAGGSLRLSCAASGSTFNRYVMGWYRQAPGKERELVAANGGRTYYADSVKGRFTISRDNAKNTVYLQMNSLKPEDTAVYYCNARSYKHPYYRFDYWGQGTQVTVSS”: the “polyreactivity (PSR sort gate)” value is given as “high polyreactivity”.
Turning to “QVQLVESGGGLVQAGGSLRLSCAASGSTFNSYAMGWYRQAPGKERELVAAISWSGGSTYYADSVKGRFTISRDNAKNTVYLQMNSLKPEDTAVYYCNADYWWEYAYGVDYWGQGTQVTVSS”, the “polyreactivity (PSR sort gate)” value was “low polyreactivity”.
Turning to “QVQLVESGGGLVQAGGSLRLSCAASGSTFNSYARGWYRQAPGTERELVAAITSSVGSTYYADSVKGRFTISRDNAKNTVYLQMNSLKPEDTAVYYCDRDYFNREAFDYWGQGTQVTVSS”, the “polyreactivity (PSR sort gate)” value is recorded as “low polyreactivity”.
Regarding “QVQLVESGGGLVQAGGSLRLSCAASGSTFNYNAMGWYRQAPGKEREFVAAISRSGGSTSYADSVKGRFTLSRDNAKNTVYLQMNSLKPEDTAVYYCAAYYRKTGYDYWGQGTQVTVSS”, the “polyreactivity (PSR sort gate)” value is listed as “high polyreactivity”.
As to “QVQLVESGGGLVQAGGSLRLSCAASGSTFNYNAMGWYRQAPGKERELVAAINRSGGRTYYADSVKGRFTISRDNAKNTVYLKMNSLKPEDTAVYYCAKRYYKSLNRDEFDSWGQGTQVTVSS”, the “polyreactivity (PSR sort gate)” value is recorded as “high polyreactivity”.
Regarding “QVQLVESGGGLVQAGGSLRLSCAASGSTFNYNAMGWYRQAPGKERELVADISWRGGITYYADSVKGRFTISRDNAKNTVYLQMNSLKPEDTAVYYCNADAESFDDGYWGQGTQVTVSS”, the “polyreactivity (PSR sort gate)” value was “low polyreactivity”.
Take “QVQLVESGGGLVQAGGSLRLSCAASGSTFNYYAMGWYRQAPGKERELVAVITNGGTTYYADSVKGRFTISRDNAKNTVYLQMNSLKPEDTAVYYCAAALLGRSKRFYYWGQGTQVTVSS”: the “polyreactivity (PSR sort gate)” value was “high polyreactivity”.
Turning to “QVQLVESGGGLVQAGGSLRLSCAASGSTFPANAMGCYRQAPGKERELVATISWSCGRTYYADSVKGRFTISRDNAKNTVYLQMNSLKPEDSAVYYCAKGYYWLSTYGDSRYGYWGQGTQVTVSS”, the “polyreactivity (PSR sort gate)” value is given as “high polyreactivity”.
As for “QVQLVESGGGLVQAGGSLRLSCAASGSTFPANAMGWYRQAPGKERELVATISWSGGRTYYADSVKGRFTISRDNAKNTVYIQMNSLKPEDTAVYYCAAYPLYRRRWTGDYWGQGTQVTVSS”, the entry is “high polyreactivity”; as for “QVQLVESGGGLVQAGGSLRLSCAASGSTFPAYAMGWYRQAPGKERELVAAITRGGSTNYADSEKGRFTISRDNAKNTVYLQMNSLKPEDTAVYYCAADKRYWWRYNYWASRSRGESWGQGTQVTVSS”, “high polyreactivity”.
“QVQLVESGGGLVQAGGSLRLSCAASGSTFPAYTMGWYRQAPGKERELVAAINVSSGGSTYYADSVKGRFTISRDNAKNTVYLQMNSLKPEDTAVYYCATRYVTTGYDYWGQGTQVTVSS”: the “polyreactivity (PSR sort gate)” value is on record as “low polyreactivity”.
“QVQLVESGGGLVQAGGSLRLSCAASGSTFPDYAMGWSRPAPGKERELVATINDGDSTSYADSVKGRFTISRDNAKNTVYLQMNSLKTEDTAVYYCAADIRSNRLYDGGYWGQGTQVTVSS”: the “polyreactivity (PSR sort gate)” value was “low polyreactivity”.
Turning to “QVQLVESGGGLVQAGGSLRLSCAASGSTFPDYAMGWYRQAPGKDRELVAAISGDSDDTYYADSVKGRFTISRDNAKNTVYLQMNSLKPEDTAVYYCAARRGRAVYSVAYDYWGQGTQVTVSS”, the “polyreactivity (PSR sort gate)” value is listed as “high polyreactivity”.

Source of the values: the nanobody polyreactivity screen of Harvey et al. (2022).
